Data as given in US9260500B2, “Peptide and use thereof” (Takeda Pharmaceutical Company Limited, priority 2009, dated 2016).
Starred links: 1 amine or outer side, 2 acyl side, 3 side chain; linkers in the order of their positions; H or OH if unused. Non-standard residues stand in square brackets, D forms with d. No end group written: not given here. *: point of attachment. Dap(CONH2) = NC(=O)NC[C@H](N)C(=O)O; tBuAla = CC(C)(C)C[C@H](N)C(=O)O; 3Pal = N[C@@H](Cc1cccnc1)C(=O)O; 4Pal = N[C@@H](Cc1ccncc1)C(=O)O; Cha = N[C@@H](CC1CCCCC1)C(=O)O; Gly(N-CH2CH2OH) = O=C(O)CNCCO; Suc = O=C(CCC(=O)[*:2])[*:1]; Isobutyryl = CC(C)C(=O)*; Abu = CC[C@H](N)C(=O)O; Aib = CC(C)(N)C(=O)O; Ahx = NCCCCCC(=O)O

Columns and labels:
[1] = target: T1, human Y2 receptor (Homo sapiens, UniProt P49146); experiment: Receptor Binding Assay (RBA) for Human Y2, [125I]-PYY displacement on hY2R/CHO membrane fraction; conditions: IC50 of test compound/IC50 of PYY(3-36) (PYY(3-36) taken as 1)
T1 construct: expressed in transfected cells; membrane fraction
T1 sequence (P49146 1-381): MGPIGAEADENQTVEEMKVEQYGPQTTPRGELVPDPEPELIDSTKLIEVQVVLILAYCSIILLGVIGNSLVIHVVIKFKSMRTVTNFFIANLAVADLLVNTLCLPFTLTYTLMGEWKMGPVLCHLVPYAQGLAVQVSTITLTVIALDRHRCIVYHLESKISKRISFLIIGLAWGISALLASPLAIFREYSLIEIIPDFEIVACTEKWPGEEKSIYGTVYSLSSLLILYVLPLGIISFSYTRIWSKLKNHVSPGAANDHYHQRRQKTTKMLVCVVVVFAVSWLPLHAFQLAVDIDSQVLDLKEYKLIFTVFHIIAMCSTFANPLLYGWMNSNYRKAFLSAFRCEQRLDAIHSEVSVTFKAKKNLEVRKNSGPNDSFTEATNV
Procedure: (1) Construction of Expression Plasmid for the Human Y2 Receptor (Y2R) Gene
PCR was performed by a reaction using Pfu DNA polymerase ([…]), with a human brain cDNA (PT3158-1, Clontech) as the template, wherein synthetic DNAs with the following sequences were used as a combination of 5′ and 3′ primers, whereby the human Y2R gene was cloned. Primer 1 was prepared on the basis of base sequence information on the human Y2R gene (Refseq ID No. NM_000910) with the addition of Kozak's consensus sequence. Primer 2 was prepared on the basis of base sequence information on the human Y2R gene.
The PCR product obtained was cloned into pCR4-Blunt-TOPO (Invitrogen), and the plasmid was extracted according to a conventional method (QIAwell 8 Plus, QIAGEN). After confirming the base sequence, the human Y2R gene was re-cloned by a PCR reaction with the plasmid DNA as the template, using Primer 1 as the 5′ primer and Primer 2 as the 3′ primer. The PCR was performed using the Pyrobest DNA polymerase (TaKaRa). The PCR product obtained was re-cloned into pCR-Blunt II-TOPO (Invitrogen), and the plasmid was extracted according to a conventional method (QIAGEN). An Xho I restriction enzyme digestion site and an Spe I restriction enzyme digestion site are present in the cloning site of the pCR-Blunt II-TOPO; a plasmid clone was selected wherein the human Y2R gene was inserted in the orientation such that the Xho I restriction enzyme digestion site was positioned upstream of Primer 1, and the Spe I restriction enzyme digestion site was positioned downstream of Primer 2. After confirming the base sequence, the plasmid clone was digested with the restriction enzymes Xho I and Spe I to yield a DNA fragment. The DNA fragment was inserted into the animal cell expression vector pAKKO-111H (the same plasmid as pAKKO-1.111H described in Biochem. Biophys. Acta, Hinuma, S. et al., 1219, 251-259 (1994)), which was enzymatically digested with Sal I and Spe I, to yield the expression plasmid pAK-hY2R (pAKKO-111H/Y2R).
(2) Test Method: Receptor Binding Assay (RBA) for Human Y2
A human NPY2R (hY2R) stable expression cell line was acquired by transducing the animal cell expression plasmid pAK-hY2R into CHO/dhfr-cells using the CellPhect Transfection kit (Amersham Pharmacia Biotech Co.). First, 240 μl of Buffer A (attached to the CellPhect Transfection kit) was added to 9.6 μg of the plasmid DNA dissolved in 240 μl of distilled water; this mixture was stirred and allowed to stand for 10 minutes, after which 480 μL of Buffer B (attached to the CellPhect Transfection kit) was added, and the mixture was vigorously stirred to form a liposome containing the DNA. 2.5×10^5 or 4×10^5 CHO/dhfr− cells (obtained from ATCC) were seeded to 60 mm petri dishes, and cultured in Ham's F-12 medium (Sigma Co.) containing 10% fetal bovine serum (BioWest Co.) at 37° C. in 5% gaseous carbon dioxide for 1 day, after which 480 μL of the liposome was added drop by drop on to the cells in each petri dish. This was cultured at 37° C. in 5% gaseous carbon dioxide for 6 hours, after which the cells were twice washed with serum-free Ham's F-12 medium; 3 mL of 15% glycerol was added onto the cells in the petri dish and treated for 2 minutes. This was again washed 3 times with serum-free Ham's F-12 medium, after which the cells were cultured in Ham's F-12 medium containing 10% fetal bovine serum at 37° C. in 5% gaseous carbon dioxide. The cells were dispersed by trypsinization and recovered from the petri dishes, and seeded to a 6-well plate at 2.5×10^4 or 4×10^4 cells per well; cultivation was begun in Dulbecco's modified Eagle medium <DMEM> medium (Sigma Co.) containing dialyzed 10% fetal bovine serum (Invitrogen Co.) at 37° C. in 5% gaseous carbon dioxide. Since plasmid-introduced transformant CHO cells grow in the medium, whereas cells without plasmid introduction die gradually, about 20 colonies of transformed CHO cell that had grown 9-13 days after the start of the cultivation were isolated. […]

[2] = target: T1, human Y2 receptor; experiment: Human Y2 Receptor G Protein Binding Assay (GBA), [35S]GTPγS; assay type: biochemical; conditions: EC50 of test compound/EC50 of PYY(3-36) (PYY3-36 taken as 1), hY2R/CHO membrane fraction
Procedure: (3) Test Method: Human Y2 Receptor G Protein Binding Assay (GBA)
The agonist activity of the compound of the present invention against the human Y2 receptor was measured by the method described below.
2 μL of the test compound, serially diluted with DMSO from 100 μM to 1 nM, was dispensed to a 96-well plate, and 100 μL of the membrane fraction, previously diluted with an assay buffer (50 mM Tris, 5 mM MgCl2, 150 mM NaCl, […], 0.03% NaN3, 0.1% BSA, pH 7.4) to 1 μg protein/mL, was dispensed thereto, subsequently, 100 μL of a [^35S]GTPγS (NEG030H, PerkinElmer, previously diluted with the assay buffer to 1 nM) was added, and they were mixed by pipetting. After incubation at room temperature for 120 minutes, the mixture was filtered through the cell harvester FilterMate (PerkinElmer) using the UniFilter-96 GF/C (PerkinElmer), and the filter was washed 3 times with a filtering buffer (50 mM Tris, 5 mM MgCl2, 150 mM NaCl, 0.03% NaN3, 0.05% CHAPS, pH 7.4). Thereafter, UniFilter-96 GF/C was dried in a mechanical drier for 1 hour, 15 μl of the liquid scintillator MicroScint O (PerkinElmer) was added to each well, and a measurement was taken using TopCount (PerkinElmer). The data obtained were analyzed using Prism to calculate the EC50 value. The agonist activity of the test compound was expressed as a ratio to the EC50 value of PYY3-36 taken as 1 (EC50 Ratio: EC50 of test compound/EC50 of PYY(3-36)). The results are shown in the GBA column in Table 5 (Table 5-1-Table 5-10).

RBA IC50 Ratio [1]	GBA EC50 Ratio [2]	Substance
12	2.2	Ac-[D-Pro24, Alb26, Cha27,28,36, Aib31]-PYY(23-36) (Ac-S[dP]R[Dap(CONH2)][Cha][Cha]NL[Aib]TRQR[Cha]-NH2; SMILES CC(=O)N[C@@H](CO)C(=O)N1CCC[C@@H]1C(=O)N[C@@H](CCCNC(=N)N)C(=O)N[C@@H](CNC(N)=O)C(=O)N[C@@H](CC1CCCCC1)C(=O)N[C@@H](CC1CCCCC1)C(=O)N[C@@H](CC(N)=O)C(=O)N[C@@H](CC(C)C)C(=O)NC(C)(C)C(=O)N[C@H](C(=O)N[C@@H](CCCNC(=N)N)C(=O)N[C@@H](CCC(N)=O)C(=O)N[C@@H](CCCNC(=N)N)C(=O)N[C@@H](CC1CCCCC1)C(N)=O)[C@@H](C)O) [compound No. 149]
2.8	2.2	Ac-[D-Pro24, Cit25, Pya(4)26, Cha27,36, Aib28,31, Lys30]-PYY(23-36) [compound No. 225]
1.0	1.3	Ac-[D-Pro24, Pya(4)26, Cha27,36, Aib28,31, Lys(Hexyl)30]-PYY(23-36) [compound No. 279]
2.0	1.2	[N(2-hydroxyethyl)Gly23, D-Pro24, Cha27,28,36, Aib31]-PYY(23-36) ([Gly(N-CH2CH2OH)][dP]RH[Cha][Cha]NL[Aib]TRQR[Cha]-NH2; N-terminus assumed; SMILES CC(C)C[C@H](NC(=O)[C@H](CC(N)=O)NC(=O)[C@H](CC1CCCCC1)NC(=O)[C@H](CC1CCCCC1)NC(=O)[C@H](Cc1c[nH]cn1)NC(=O)[C@H](CCCNC(=N)N)NC(=O)[C@H]1CCCN1C(=O)CNCCO)C(=O)NC(C)(C)C(=O)N[C@H](C(=O)N[C@@H](CCCNC(=N)N)C(=O)N[C@@H](CCC(N)=O)C(=O)N[C@@H](CCCNC(=N)N)C(=O)N[C@@H](CC1CCCCC1)C(N)=O)[C@@H](C)O) [compound No. 134]
1.1	1.8	Ac-[D-Pro24, Pya(4)26, Cha27,36, Aib28,31, Arg30]-PYY(23-36) (Ac-S[dP]R[4Pal][Cha][Aib]NR[Aib]TRQR[Cha]-NH2; SMILES CC(=O)N[C@@H](CO)C(=O)N1CCC[C@@H]1C(=O)N[C@@H](CCCNC(=N)N)C(=O)N[C@@H](Cc1ccncc1)C(=O)N[C@@H](CC1CCCCC1)C(=O)NC(C)(C)C(=O)N[C@@H](CC(N)=O)C(=O)N[C@@H](CCCNC(=N)N)C(=O)NC(C)(C)C(=O)N[C@H](C(=O)N[C@@H](CCCNC(=N)N)C(=O)N[C@@H](CCC(N)=O)C(=O)N[C@@H](CCCNC(=N)N)C(=O)N[C@@H](CC1CCCCC1)C(N)=O)[C@@H](C)O) [compound No. 263]

The next lines start with the substance.

Substance	RBA IC50 Ratio [1]	GBA EC50 Ratio [2]
Ac-[D-Pro24, Pya(3)26, Cha27,28,36, Aib31]-PYY(23-36) (Ac-S[dP]R[3Pal][Cha][Cha]NL[Aib]TRQR[Cha]-NH2; SMILES CC(=O)N[C@@H](CO)C(=O)N1CCC[C@@H]1C(=O)N[C@@H](CCCNC(=N)N)C(=O)N[C@@H](Cc1cccnc1)C(=O)N[C@@H](CC1CCCCC1)C(=O)N[C@@H](CC1CCCCC1)C(=O)N[C@@H](CC(N)=O)C(=O)N[C@@H](CC(C)C)C(=O)NC(C)(C)C(=O)N[C@H](C(=O)N[C@@H](CCCNC(=N)N)C(=O)N[C@@H](CCC(N)=O)C(=O)N[C@@H](CCCNC(=N)N)C(=O)N[C@@H](CC1CCCCC1)C(N)=O)[C@@H](C)O) [compound No. 148]	3.3	1.2
Isobutanoyl-[Abu26, Cha27,28,36, Abu30, Aib31]-PYY(25-36) (Isobutyryl-R[Abu][Cha][Cha]N[Abu][Aib]TRQR[Cha]-NH2; SMILES CC[C@H](NC(=O)[C@H](CCCNC(=N)N)NC(=O)C(C)C)C(=O)N[C@@H](CC1CCCCC1)C(=O)N[C@@H](CC1CCCCC1)C(=O)N[C@@H](CC(N)=O)C(=O)N[C@@H](CC)C(=O)NC(C)(C)C(=O)N[C@H](C(=O)N[C@@H](CCCNC(=N)N)C(=O)N[C@@H](CCC(N)=O)C(=O)N[C@@H](CCCNC(=N)N)C(=O)N[C@@H](CC1CCCCC1)C(N)=O)[C@@H](C)O) [compound No. 91]	20	21
Ac-[D-Pro24, Ala(4Pip)25, Pya(4)26, Cha27,36, Aib28,31, Lys30]-PYY(23-36) [compound No. 311] (Ac-S[dP][Ala(4Pip)][4Pal][Cha][Aib]NK[Aib]TRQR[Cha]-NH2; also: Ala(4Pip) configuration not fixed (D or L), former peak)	18	14
Ac-[D-Pro24, Pya(4)26, Cha27,36, Aib28,31, Orn30]-PYY(23-36) [compound No. 206]	1.5	0.83
3-Carboxypropionyl-[Acp22, D-Pro24, Cha27,36, Leu(Me)28, Lys30, Aib31]-PYY(22-36) (Suc-[Ahx]S[dP]RH[Cha][tBuAla]NK[Aib]TRQR[Cha]-NH2; SMILES C[C@@H](O)[C@H](NC(=O)C(C)(C)NC(=O)[C@H](CCCCN)NC(=O)[C@H](CC(N)=O)NC(=O)[C@H](CC(C)(C)C)NC(=O)[C@H](CC1CCCCC1)NC(=O)[C@H](Cc1c[nH]cn1)NC(=O)[C@H](CCCNC(=N)N)NC(=O)[C@H]1CCCN1C(=O)[C@H](CO)NC(=O)CCCCCNC(=O)CCC(=O)O)C(=O)N[C@@H](CCCNC(=N)N)C(=O)N[C@@H](CCC(N)=O)C(=O)N[C@@H](CCCNC(=N)N)C(=O)N[C@@H](CC1CCCCC1)C(N)=O) [compound No. 185]	1.7	1.2
